According to patent US20190048095A1 (BIO THERA SOLUTIONS, published 2019):

T1: TROP2 (TACSTD2), on TROP2 positive human tumor cell lines MDA-MB-468, A431 and N87 (human, UniProt P09758 27-323)
T1 sequence (looked up): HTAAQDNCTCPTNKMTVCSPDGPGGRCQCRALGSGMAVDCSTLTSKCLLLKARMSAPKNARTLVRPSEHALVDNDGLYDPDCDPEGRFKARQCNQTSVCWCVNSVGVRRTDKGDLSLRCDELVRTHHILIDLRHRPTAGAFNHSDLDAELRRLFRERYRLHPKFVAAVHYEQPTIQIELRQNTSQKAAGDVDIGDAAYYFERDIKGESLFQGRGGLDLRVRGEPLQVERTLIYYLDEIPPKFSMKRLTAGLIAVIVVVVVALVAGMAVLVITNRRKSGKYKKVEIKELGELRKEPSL

B1: Batansine-0806 (anti-TROP2 antibody BAT0806 conjugated with 3AA-MDC) (antibody)
light: DIQLTQSPSSLSASVGDRVSITCKASQDVSIAVAWYQQKPGKAPKLLIYSASYRYTGVPDRFSGSGSGTDFTLTISSLQPEDFAVYYCQQHYITPLTFGAGTKVEIKRTVAAPSVFIFPPSDEQLKSGTASVVCLLNNFYPREAKVQWKVDNALQSGNSQESVTEQDSKDSTYSLSSTLTLSKADYEKHKVYACEVTHQGLSSPVTKSFNRGEC
heavy: not shown
modifications: 3AA-MDC (batansine maytansinoid-linker) on cysteine thiols freed by partial TCEP reduction; positions not given
B2: Batansine-0808 (anti-TROP2 antibody BAT0808 conjugated with 3AA-MDC) (antibody, human IgG1, kappa)
light: B1 light
heavy: not shown
modifications: 3AA-MDC on site-mutated (engineered) cysteine(s); position not printed for this antibody; glycan with fucose content of 0-5%
B3: Batansine-0807 (anti-TROP2 antibody BAT0807 conjugated with 3AA-MDC) (antibody, human IgG1, kappa)
light: B1 light
heavy: not shown
modifications: 3AA-MDC on site-mutated (engineered) cysteine(s); position not printed for this antibody
B4: BAT0806-CL2A-SN-38 (anti-TROP2 antibody BAT0806 conjugated with CL2A-SN-38) (antibody, human IgG1, kappa)
light: B1 light
heavy: not shown
modifications: CL2A-SN-38 on cysteine thiols freed by TCEP reduction; positions not given

Key:
[1] = target: T1, TROP2 (TACSTD2), on TROP2 positive …; experiment: cell-based or functional assay
[2] = target: T1, TROP2 (TACSTD2), on TROP2 positive …; experiment: cell-based or functional assay; remark: listed apart in the source

Binder | EC50 (nM), synergistic ADCC, A431 with PBMC (PBMC cell:target cell 10:1) [1] | EC50, proliferation inhibition of A431 cells (CCK8, 72 h) [2] | EC50, proliferation inhibition of MDA-MB-468 cells (CCK8, 72 h) [2] | EC50, proliferation inhibition of N87 cells (CCK8, 72 h) [2] | EC50 (nM), cell proliferation, A431 [1] | EC50 (nM), cell proliferation, MDA-MB-468 [1] | EC50 (nM), cell proliferation, N87 [1] | EC50 (nM), synergistic ADCC, A431 with PBMC (PBMC cell:target cell 5:1) [1]
B1 | 0.006 nM | 0.53 nM | 3.21 nM | 0.34 nM | – | – | – | –
B2 | 0.001 nM | 1.53 nM | 5.61 nM | 1.47 nM | 2.89 nM | 1.95 nM | 0.56 nM | –
B3 | 0.011 nM | 1.73 nM | 2.89 nM | 0.77 nM | – | – | – | –
B4 | – | – | – | – | 1.26 nM | 1.84 nM | 1.84 nM | 0.143 nM
